Data from the MegaScale stability set (Tsuboyama et al. 2023).

B1: HHH_rd1_0493 (parent)
chain: RDEDEKEKIKEALKRGNEDKAKEIAKRANVSPEEYERLRKEAE
B2: EHEE_rd4_0086 (parent)
chain: EIHIRTNGEEQARKVYKMLAKRNYDVKIEQHNGQWVVTAS

Variants of: B1
Test: folding stability dG (cDNA display proteolysis); higher = more stable
Details: PBS, room temperature

Variant | folding stability dG [kcal/mol]
ADEDEKEKIKEALKRGNEDKAKEIAKRANVSPEEYERLRKEAE [R1A] | 3.23
GDEDEKEKIKEALKRGNEDKAKEIAKRANVSPEEYERLRKEAE [R1G] | 3.1
FDEDEKEKIKEALKRGNEDKAKEIAKRANVSPEEYERLRKEAE [R1F] | 3.01
CDEDEKEKIKEALKRGNEDKAKEIAKRANVSPEEYERLRKEAE [R1C] | 2.64
EDEDEKEKIKEALKRGNEDKAKEIAKRANVSPEEYERLRKEAE [R1E] | 3.02
DDEDEKEKIKEALKRGNEDKAKEIAKRANVSPEEYERLRKEAE [R1D] | 3.13

Variants of: B2
Test: as above
Details: PBS, room temperature

Variant | folding stability dG [kcal/mol]
EIHIRTNGEEQARKVYKMLAKRNYDVKIEQHNGQWVVTQS [A39Q] | 0.463
EIHIRTNGEEQARKVYKMLAKRNYDVKIEQHNGQWVVTDS [A39D] | 0.179
EIHIRTNGEEQARKVYKMLAKRNYDVKIEQHNGQWVVTVS [A39V] | 2.51
EIHIRTNGEEQARKVYKMLAKRNYDVKIEQHNGQWVVTKS [A39K] | 0.724
EIHIRTNGEEQARKVYKMLAKRNYDVKIEQHNGQWVVTMS [A39M] | 1.98
EIHIRTNGEEQARKVYKMLAKRNYDVKIEQHNGQWVVTRS [A39R] | 0.961
EIHIRTNGEEQARKVYKMLAKRNYDVKIEQHNGQWVVTWS [A39W] | 2.2
EIHIRTNGEEQARKVYKMLAKRNYDVKIEQHNGQWVVTGS [A39G] | 1.44
EIHIRTNGEEQARKVYKMLAKRNYDVKIEQHNGQWVVTHS [A39H] | 1.11
EIHIRTNGEEQARKVYKMLAKRNYDVKIEQHNGQWVVTES [A39E] | 0.112
EIHIRTNGEEQARKVYKMLAKRNYDVKIEQHNGQWVVTSS [A39S] | 1.21
EIHIRTNGEEQARKVYKMLAKRNYDVKIEQHNGQWVVTLS [A39L] | 2.36
EIHIRTNGEEQARKVYKMLAKRNYDVKIEQHNGQWVVTIS [A39I] | 2.85
EIHIRTNGEEQARKVYKMLAKRNYDVKIEQHNGQWVVTNS [A39N] | 0.642
EIHIRTNGEEQARKVYKMLAKRNYDVKIEQHNGQWVVTFS [A39F] | 2.32
EIHIRTNGEEQARKVYKMLAKRNYDVKIEQHNGQWVVTYS [A39Y] | 2.29
EIHIRTNGEEQARKVYKMLAKRNYDVKIEQHNGQWVVTPS [A39P] | 0.297
EIHIRTNGEEQARKVYKMLAKRNYDVKIEQHNGQWVVTTS [A39T] | 1.41
EIHIRTNGEEQARKVYKMLAKRNYDVKIEQHNGQWVVGAS [T38G] | 0.134
EIHIRTNGEEQARKVYKMLAKRNYDVKIEQHNGQWVVIAS [T38I] | 2.59
EIHIRTNGEEQARKVYKMLAKRNYDVKIEQHNGQWVVRAS [T38R] | 1.78
EIHIRTNGEEQARKVYKMLAKRNYDVKIEQHNGQWVVNAS [T38N] | 0.617
EIHIRTNGEEQARKVYKMLAKRNYDVKIEQHNGQWVVEAS [T38E] | 0.543
EIHIRTNGEEQARKVYKMLAKRNYDVKIEQHNGQWVVFAS [T38F] | 1.72

Variant | folding stability dG [kcal/mol]
EIHIRTNGEEQARKVYKMLAKRNYDVKIEQHNGQWVVYAS [T38Y] | 1.75
EIHIRTNGEEQARKVYKMLAKRNYDVKIEQHNGQWVVVAS [T38V] | 2.25
EIHIRTNGEEQARKVYKMLAKRNYDVKIEQHNGQWVVMAS [T38M] | 1.67
EIHIRTNGEEQARKVYKMLAKRNYDVKIEQHNGQWVVSAS [T38S] | 1.51
EIHIRTNGEEQARKVYKMLAKRNYDVKIEQHNGQWVVKAS [T38K] | 1.71
EIHIRTNGEEQARKVYKMLAKRNYDVKIEQHNGQWVVDAS [T38D] | 0.023
EIHIRTNGEEQARKVYKMLAKRNYDVKIEQHNGQWVVWAS [T38W] | 1.72
EIHIRTNGEEQARKVYKMLAKRNYDVKIEQHNGQWVVHAS [T38H] | 1.64
EIHIRTNGEEQARKVYKMLAKRNYDVKIEQHNGQWVVAAS [T38A] | 0.835
EIHIRTNGEEQARKVYKMLAKRNYDVKIEQHNGQWVVLAS [T38L] | 1.75
EIHIRTNGEEQARKVYKMLAKRNYDVKIEQHNGQWVVQAS [T38Q] | 0.832
EIHIRTNGEEQARKVYKMLAKRNYDVKIEQHNGQWVVTAF [S40F] | 2.04
EIHIRTNGEEQARKVYKMLAKRNYDVKIEQHNGQWVVTAN [S40N] | 1.65
EIHIRTNGEEQARKVYKMLAKRNYDVKIEQHNGQWVVTAR [S40R] | 2.25
EIHIRTNGEEQARKVYKMLAKRNYDVKIEQHNGQWVVTAL [S40L] | 1.78
EIHIRTNGEEQARKVYKMLAKRNYDVKIEQHNGQWVVTAI [S40I] | 2.05
EIHIRTNGEEQARKVYKMLAKRNYDVKIEQHNGQWVVTAA [S40A] | 1.54
EIHIRTNGEEQARKVYKMLAKRNYDVKIEQHNGQWVVTAK [S40K] | 2.19
EIHIRTNGEEQARKVYKMLAKRNYDVKIEQHNGQWVVTAT [S40T] | 2.08
EIHIRTNGEEQARKVYKMLAKRNYDVKIEQHNGQWVVTAP [S40P] | 1.16
EIHIRTNGEEQARKVYKMLAKRNYDVKIEQHNGQWVVTAG [S40G] | 1.33
EIHIRTNGEEQARKVYKMLAKRNYDVKIEQHNGQWVVTAQ [S40Q] | 1.57
EIHIRTNGEEQARKVYKMLAKRNYDVKIEQHNGQWVVTAH [S40H] | 1.77
EIHIRTNGEEQARKVYKMLAKRNYDVKIEQHNGQWVVTAW [S40W] | 2.2

Variant | folding stability dG [kcal/mol]
EIHIRTNGEEQARKVYKMLAKRNYDVKIEQHNGQWVVTAM [S40M] | 1.81
EIHIRTNGEEQARKVYKMLAKRNYDVKIEQHNGQWVVTAV [S40V] | 1.98
EIHIRTNGEEQARKVYKMLAKRNYDVKIEQHNGQWVVTAY [S40Y] | 1.96
EIHIRTNGEEQARKVYKMLAKRNYDVKIEQHNGQWVVTAE [S40E] | 1.02
EIHIRTNGEEQARKVYKMLAKRNYDVKIEQHNGQWVVTAD [S40D] | 0.806
EIHIRTNGEEQARKVYKMLAKRNYDVKIEQHNGQWVWTAS [V37W] | -0.025
EIHIRTNGEEQARKVYKMLAKRNYDVKIEQHNGQWVMTAS [V37M] | 0.044
EIHIRTNGEEQARKVYKMLAKRNYDVKIEQHNGQWVLTAS [V37L] | 0.844
EIHIRTNGEEQARKVYKMLAKRNYDVKIEQHNGQWVITAS [V37I] | 1.79
EIHIRTNGEEQARKVYKMLAKRNYDVKIEQHNGQWVFTAS [V37F] | -0.019
EIHIRTNGEEQARKVYKMLAKRNYDVKIEQHNGDWVVTAS [Q34D] | 1.51
EIHIRTNGEEQARKVYKMLAKRNYDVKIEQHNGSWVVTAS [Q34S] | 1.67
EIHIRTNGEEQARKVYKMLAKRNYDVKIEQHNGTWVVTAS [Q34T] | 1.95
EIHIRTNGEEQARKVYKMLAKRNYDVKIEQHNGVWVVTAS [Q34V] | 2.27
EIHIRTNGEEQARKVYKMLAKRNYDVKIEQHNGKWVVTAS [Q34K] | 1.61
EIHIRTNGEEQARKVYKMLAKRNYDVKIEQHNGMWVVTAS [Q34M] | 2.09
EIHIRTNGEEQARKVYKMLAKRNYDVKIEQHNGRWVVTAS [Q34R] | 1.59
EIHIRTNGEEQARKVYKMLAKRNYDVKIEQHNGAWVVTAS [Q34A] | 1.77
EIHIRTNGEEQARKVYKMLAKRNYDVKIEQHNGNWVVTAS [Q34N] | 1.52
EIHIRTNGEEQARKVYKMLAKRNYDVKIEQHNGFWVVTAS [Q34F] | 2.5
EIHIRTNGEEQARKVYKMLAKRNYDVKIEQHNGYWVVTAS [Q34Y] | 2.55
EIHIRTNGEEQARKVYKMLAKRNYDVKIEQHNGLWVVTAS [Q34L] | 1.86
EIHIRTNGEEQARKVYKMLAKRNYDVKIEQHNGWWVVTAS [Q34W] | 2.31
EIHIRTNGEEQARKVYKMLAKRNYDVKIEQHNGIWVVTAS [Q34I] | 2.27

Variant | folding stability dG [kcal/mol]
EIHIRTNGEEQARKVYKMLAKRNYDVKIEQHNGEWVVTAS [Q34E] | 1.87
EIHIRTNGEEQARKVYKMLAKRNYDVKIEQHNGPWVVTAS [Q34P] | -0.941
EIHIRTNGEEQARKVYKMLAKRNYDVKIEQHNGGWVVTAS [Q34G] | 1.58
EIHIRTNGEEQARKVYKMLAKRNYDVKIEQHNGHWVVTAS [Q34H] | 2.04
EIHIRTNGEEQARKVYKMLAKRNYDVKIEQHNGQLVVTAS [W35L] | -0.221
EIHIRTNGEEQARKVYKMLAKRNYDVKIEQHNGQIVVTAS [W35I] | -0.153
EIHIRTNGEEQARKVYKMLAKRNYDVKIEQHNGQVVVTAS [W35V] | -0.525
EIHIRTNGEEQARKVYKMLAKRNYDVKIEQHNGQTVVTAS [W35T] | -0.759
EIHIRTNGEEQARKVYKMLAKRNYDVKIEQHNGQYVVTAS [W35Y] | 0.915
EIHIRTNGEEQARKVYKMLAKRNYDVKIEQHNGQMVVTAS [W35M] | -0.847
EIHIRTNGEEQARKVYKMLAKRNYDVKIEQHNGQFVVTAS [W35F] | 1.01
EIHIRTNGEEQARKVYKMLAKRNYDVKIEQHNEQWVVTAS [G33E] | 1.21
EIHIRTNGEEQARKVYKMLAKRNYDVKIEQHNRQWVVTAS [G33R] | 0.801
EIHIRTNGEEQARKVYKMLAKRNYDVKIEQHNDQWVVTAS [G33D] | 1.35
EIHIRTNGEEQARKVYKMLAKRNYDVKIEQHNLQWVVTAS [G33L] | 0.714
EIHIRTNGEEQARKVYKMLAKRNYDVKIEQHNFQWVVTAS [G33F] | 0.875
EIHIRTNGEEQARKVYKMLAKRNYDVKIEQHNWQWVVTAS [G33W] | 0.42
EIHIRTNGEEQARKVYKMLAKRNYDVKIEQHNMQWVVTAS [G33M] | 0.969
EIHIRTNGEEQARKVYKMLAKRNYDVKIEQHNSQWVVTAS [G33S] | 1.08
EIHIRTNGEEQARKVYKMLAKRNYDVKIEQHNYQWVVTAS [G33Y] | 0.642
EIHIRTNGEEQARKVYKMLAKRNYDVKIEQHNTQWVVTAS [G33T] | 0.841
EIHIRTNGEEQARKVYKMLAKRNYDVKIEQHNKQWVVTAS [G33K] | 0.996
EIHIRTNGEEQARKVYKMLAKRNYDVKIEQHNIQWVVTAS [G33I] | 0.069
EIHIRTNGEEQARKVYKMLAKRNYDVKIEQHNNQWVVTAS [G33N] | 1.24

Variant | folding stability dG [kcal/mol]
EIHIRTNGEEQARKVYKMLAKRNYDVKIEQHNQQWVVTAS [G33Q] | 0.937
EIHIRTNGEEQARKVYKMLAKRNYDVKIEQHNVQWVVTAS [G33V] | 0.374
EIHIRTNGEEQARKVYKMLAKRNYDVKIEQHNAQWVVTAS [G33A] | 0.852
EIHIRTNGEEQARKVYKMLAKRNYDVKIEQHNHQWVVTAS [G33H] | 1.49
EIHIRTNGEEQARKVYKMLAKRNYDVKIEQHNGQWTVTAS [V36T] | 1.39
EIHIRTNGEEQARKVYKMLAKRNYDVKIEQHNGQWLVTAS [V36L] | 1.78
EIHIRTNGEEQARKVYKMLAKRNYDVKIEQHNGQWSVTAS [V36S] | 1.23
EIHIRTNGEEQARKVYKMLAKRNYDVKIEQHNGQWAVTAS [V36A] | 0.857
EIHIRTNGEEQARKVYKMLAKRNYDVKIEQHNGQWWVTAS [V36W] | 2.3
EIHIRTNGEEQARKVYKMLAKRNYDVKIEQHNGQWDVTAS [V36D] | 0.384
EIHIRTNGEEQARKVYKMLAKRNYDVKIEQHNGQWRVTAS [V36R] | 1.07
EIHIRTNGEEQARKVYKMLAKRNYDVKIEQHNGQWHVTAS [V36H] | 1.56
EIHIRTNGEEQARKVYKMLAKRNYDVKIEQHNGQWYVTAS [V36Y] | 2.13
EIHIRTNGEEQARKVYKMLAKRNYDVKIEQHNGQWGVTAS [V36G] | 0.463
EIHIRTNGEEQARKVYKMLAKRNYDVKIEQHNGQWNVTAS [V36N] | 0.466
EIHIRTNGEEQARKVYKMLAKRNYDVKIEQHNGQWIVTAS [V36I] | 2.15
EIHIRTNGEEQARKVYKMLAKRNYDVKIEQHNGQWFVTAS [V36F] | 2.06
EIHIRTNGEEQARKVYKMLAKRNYDVKIEQHNGQWMVTAS [V36M] | 1.58
EIHIRTNGEEQARKVYKMLAKRNYDVKIEQHNGQWEVTAS [V36E] | 0.934
EIHIRTNGEEQARKVYKMLAKRNYDVKIEQHNGQWQVTAS [V36Q] | 1.07
EIHIRTNGEEQARKVYKMLAKRNYDVKIEQHNGQWKVTAS [V36K] | 0.658
EIHIRTNGEEQARKVYKMLAKRNYDVKIEQHYGQWVVTAS [N32Y] | 1.38
EIHIRTNGEEQARKVYKMLAKRNYDVKIEQHWGQWVVTAS [N32W] | 1.12
